{"source": "paper PMC10171809", "target": "HEXIM1 (UniProt O94992)", "experiment": "co-immunoprecipitation", "details": "reference: wild type; sites S43", "data": [{"substance": "METTL3 (from UniProt Q86U44) S43A", "values": [{"measurement": "binding against the reference", "value": "stronger"}]}]}
